The values that follow come from the Human Domainome abundance scans (Beltran et al. 2025).

± gives the uncertainty stated by the source.

This data set in a line: abundance fitness (aPCA) (normalised: wild type 0, dead -1); higher = more abundant; growth selection in yeast, the domain comes from the species named. Particulars: Homo sapiens.
“Transcriptional activator Myb W166G, P10242”: the abundance fitness was -0.543 ± 0.056.
“Transcriptional activator Myb W166H, P10242” displayed an abundance fitness of -0.455 ± 0.17.
With “Transcriptional activator Myb W166I, P10242” the figure was -0.834 ± 0.17; with “Transcriptional activator Myb W166K, P10242”, -0.786 ± 0.2; with “Transcriptional activator Myb W166L, P10242”, -0.986 ± 0.14.
For “Transcriptional activator Myb W166M, P10242”, the abundance fitness is -0.708 ± 0.15.
Take “Transcriptional activator Myb W166N, P10242”: the abundance fitness is -0.349 ± 0.2.
In turn, “Transcriptional activator Myb W166P, P10242” gave an abundance fitness of -0.359 ± 0.15.
Turning to “Transcriptional activator Myb W166Q, P10242”, the abundance fitness is -0.708 ± 0.1.
“Transcriptional activator Myb W166R, P10242” showed an abundance fitness of -0.761 ± 0.062.
As to “Transcriptional activator Myb W166S, P10242”, the abundance fitness was -0.615 ± 0.091.
Substance “Transcriptional activator Myb W166T, P10242” registered an abundance fitness of -0.63 ± 0.11.
Next, “Transcriptional activator Myb W166V, P10242”: -0.615 ± 0.075; “Transcriptional activator Myb W166Y, P10242”: -0.377 ± 0.14.
In turn, “Transcriptional activator Myb W185A, P10242” had an abundance fitness of -0.736 ± 0.071.
“Transcriptional activator Myb W185C, P10242”: the abundance fitness is -0.755 ± 0.12.
Consider “Transcriptional activator Myb W185D, P10242”, for which the abundance fitness is -0.658 ± 0.17.
As to “Transcriptional activator Myb W185E, P10242”, the abundance fitness was -0.614 ± 0.068.
As for “Transcriptional activator Myb W185F, P10242”, the abundance fitness is -0.037 ± 0.075.
For “Transcriptional activator Myb W185G, P10242”, the abundance fitness was -0.702 ± 0.046.
Take “Transcriptional activator Myb W185K, P10242”: the abundance fitness was -0.553 ± 0.11.
Substance “Transcriptional activator Myb W185L, P10242” yielded an abundance fitness of -0.509 ± 0.067.
In turn, “Transcriptional activator Myb W185M, P10242” displayed an abundance fitness of -0.327 ± 0.13.
The substance “Transcriptional activator Myb W185N, P10242” registered an abundance fitness of -0.55 ± 0.14.
Substance “Transcriptional activator Myb W185P, P10242” registered an abundance fitness of -0.688 ± 0.15.
The substance “Transcriptional activator Myb W185Q, P10242” showed an abundance fitness of -1.05 ± 0.25.
Consider “Transcriptional activator Myb W185R, P10242”, for which the abundance fitness was -0.686 ± 0.066.
“Transcriptional activator Myb W185S, P10242” displayed an abundance fitness of -0.648 ± 0.083.
Consider “Transcriptional activator Myb W185T, P10242”, for which the abundance fitness is -0.705 ± 0.12.
For “Transcriptional activator Myb W185V, P10242”, the abundance fitness was -0.246 ± 0.053.
Next, “Transcriptional activator Myb W185Y, P10242”: -0.034 ± 0.14.
In turn, “Transcriptional activator Myb Y156A, P10242” returned an abundance fitness of -0.056 ± 0.049.
The substance “Transcriptional activator Myb Y156C, P10242” yielded an abundance fitness of -0.069 ± 0.076.
The substance “Transcriptional activator Myb Y156D, P10242” had an abundance fitness of -0.049 ± 0.086.
In turn, “Transcriptional activator Myb Y156E, P10242” came in with an abundance fitness of -0.124 ± 0.055.
For the substance “Transcriptional activator Myb Y156F, P10242”, the abundance fitness stood at 0.091 ± 0.11.
With “Transcriptional activator Myb Y156G, P10242” the figure was -0.237 ± 0.034.
Take “Transcriptional activator Myb Y156H, P10242”: the abundance fitness is -0.021 ± 0.11.
Next, “Transcriptional activator Myb Y156I, P10242”: -0.061 ± 0.13; “Transcriptional activator Myb Y156K, P10242”: -0.13 ± 0.062; “Transcriptional activator Myb Y156L, P10242”: 0.004 ± 0.047.
As for “Transcriptional activator Myb Y156N, P10242”, the abundance fitness was -0.33 ± 0.12.
Turning to “Transcriptional activator Myb Y156P, P10242”, the abundance fitness was -0.859 ± 0.1.
With “Transcriptional activator Myb Y156Q, P10242” the figure was -0.014 ± 0.073; with “Transcriptional activator Myb Y156R, P10242”, -0.102 ± 0.037; with “Transcriptional activator Myb Y156S, P10242”, -0.036 ± 0.047.
Turning to “Transcriptional activator Myb Y156T, P10242”, the abundance fitness is -0.09 ± 0.072.
The substance “Transcriptional activator Myb Y156V, P10242” gave an abundance fitness of -0.056 ± 0.046.
With “Transcriptional activator Myb Y156W, P10242” the figure was -0.074 ± 0.046; with “Transcriptional activator Myb Y198A, P10242”, 0.01 ± 0.086.
With “Transcriptional activator Myb Y198C, P10242”, the abundance fitness was -0.16 ± 0.14.
In turn, “Transcriptional activator Myb Y198D, P10242” returned an abundance fitness of -0.035 ± 0.12.
“Transcriptional activator Myb Y198E, P10242” yielded an abundance fitness of 0.057 ± 0.099.
Regarding “Transcriptional activator Myb Y198F, P10242”, the abundance fitness is -0.033 ± 0.17.
With “Transcriptional activator Myb Y198G, P10242”, the abundance fitness is -0.041 ± 0.065.
Next, “Transcriptional activator Myb Y198H, P10242”: -0.145 ± 0.2; “Transcriptional activator Myb Y198I, P10242”: 0.093 ± 0.12; “Transcriptional activator Myb Y198K, P10242”: -0.011 ± 0.13.
Substance “Transcriptional activator Myb Y198L, P10242” came in with an abundance fitness of 0.027 ± 0.089.
For the substance “Transcriptional activator Myb Y198M, P10242”, the abundance fitness is -0.01 ± 0.1.
“Transcriptional activator Myb Y198N, P10242” came in with an abundance fitness of 0.067 ± 0.11.
As for “Transcriptional activator Myb Y198P, P10242”, the abundance fitness turned out to be 0.016 ± 0.14.
In the case of “Transcriptional activator Myb Y198Q, P10242”, the abundance fitness was -0.02 ± 0.1.
Turning to “Transcriptional activator Myb Y198R, P10242”, the abundance fitness is 0.054 ± 0.063.
Substance “Transcriptional activator Myb Y198S, P10242” displayed an abundance fitness of 0.025 ± 0.065.
For “Transcriptional activator Myb Y198T, P10242”, the abundance fitness was -0.071 ± 0.1.
As for “Transcriptional activator Myb Y198V, P10242”, the abundance fitness is -0.042 ± 0.069.
With “Transcriptional activator Myb Y198W, P10242” the figure was -0.133 ± 0.095.
